Self-cleavage data for 32 variants are collected here from the RNAGym collection of RNA variant scans (doi:10.7554/elife.80360).

B1: HDV Ribozyme (parent)
chain: GGCCGGCAUGGUCCCAGCCUCCUCGCUGGCGCCGGCUGGGCAACAUUCCGAGGGGACCGUCCCCUCGGUAAUGGCGAAUGGGACCCA

The data set covers variants of B1. Description: self-cleavage, relative activity (ratio to wild type); higher = more cleavage; co-transcriptional.
Regarding GGCCGGCAUGGUCCCAGCCUCCUCGCUGGCACCGGCUGGGCAACAUUCCGAGGGGACCGUCCCUUCGGUAAUGGCGAAUGGGACCCA, the self-cleavage was determined as 0.409.

Take GGCCGGCAUGGUCCCAGCCUCCUCGCUGGCACCGGCUGGGCAACAUUCCGAGGGGACCGUCCCGUCGGUAAUGGCGAAUGGGACCCA: the self-cleavage was determined as 0.408.

Turning to GGCCGGCAUGGUCCCAGCCUCCUCGCUGGCACCGGCUGGGCAACAUUCGGAGGGGACCGUCCCCUCGGUAAUGGCGAAUGGGACCCA, the self-cleavage was found to be 0.34.

For the variant GGCCGGCAUGGUCCCAGCCUCCUCGCUGGCACCGGCUGGGCAACAUUCCGAGGGGACCGUCCCCUCGGUAAUGGCGAAGGGGACCCA, the self-cleavage is 0.266.

Regarding GGCCGGCAUGGUCCCAGCCUCCUCGCUGGCACCGGCUGGGCAACAUUCCGAGGGGACCGUCCCCUCGGUAAUGGCGAACGGGACCCA, the self-cleavage is 0.11.

For GGCCGGCAUGGUCCCAGCCUCCUCGCUGGUGCCGGCUGGGCAACAUUCCGAGGGGACCGUCCCCUCGGUAAUGGCGAACGGGACCCA, the self-cleavage was 0.148.

For GGCCGGCAUGGUCCCAGCCUCCUCGCUGGUGCCGGCUGGGCAACAUUCCGAGGGGACCGUCCCCUCGUUAAUGGCGAAUGGGACCCA, the self-cleavage turned out to be 0.594.

As for GGCCGGCAUGGUCCCAGCCUCCUCGCUGGCACCGGCUGGGCAACAUUCCGAGGGGACCGUCCCCUCGGUAAUGUCGAAUGGGACCCA, the self-cleavage worked out at 0.134.

Take GGCCGGCAUGGUCCCAGCCUCCUCGCUGGCACCGGCUGGGCAACAUUCCGAGGGGACAGUCCCCUCGGUAAUGGCGAAUGGGACCCA: the self-cleavage was found to be 0.574.

For GGCCGGCAUGGUCCCAGCCUCCUCGCUGGCACCGGCUGGGCAACAUUCCGAGGGGACGGUCCCCUCGGUAAUGGCGAAUGGGACCCA, the self-cleavage came to 0.393.

Regarding GGCCGGCAUGGUCCCAGCCUCCUCGCUGGCACCGGCUGGGCAACAUUCCGAGGGGACCGUCCCCUCGGUAAUGGCGAAUGGGACGCA, the self-cleavage is 0.367.

Turning to GGCCGGCAUGGUCCCAGCCUCCUCGCUGGCCCCGGCUGGGCAACAUUCCGAGGGGGCCGUCCCCUCGGUAAUGGCGAAUGGGACCCA, the self-cleavage was 0.166.

Turning to GGCCGGCAUGGUCCCAGCCUCCUCGCUGGCACCGGCUGGGCAACAUUCCGAGGGGACCGUCCCCUCGGUAAUGGCGAAUUGGACCCA, the self-cleavage is 0.104.

On to GGCCGGCAUGGUCCCAGCCUCCUCGCUGGCACCGGCUGGGCAACAUUCCGAGGGGACCGUCCCCUCGUUAAUGGCGAAUGGGACCCA, for which the self-cleavage amounted to 0.463.

As to GGCCGGCAUGGUCCCAGCCUCCUCGCUGGCACCGGCUGGGCAACAUUCCGAGGGGACCGUCCCCUCGAUAAUGGCGAAUGGGACCCA, the self-cleavage amounted to 0.481.

Consider GGCCGGCAUGGUCCCAGCCUCCUCGCUGGUGCCGGCUGGGCAACAUUCCGAGGGGACCGUCCCCUCUGUAAUGGCGAAUGGGACCCA, for which the self-cleavage was determined as 0.75.

In the case of GGCCGGCAUGGUCCCAGCCUCCUCGCUGGCCCCGGCUGGGCAACAUUCCGAGGGGACCGUCCCCUCGGUAGUGGCGAAUGGGACCCA, the self-cleavage was 0.253.

Regarding GGCCGGCAUGGUCCCAGCCUCCUCGCUGGCCCCGGCUGGGCAACAUUCCGAGGGGACCGUCCCCUCGGUAUUGGCGAAUGGGACCCA, the self-cleavage was 0.172.

For GGCCGGCAUGGUCCCAGCCUCCUCGCUGGCCCCGGCUGGGCAACAUUCCGAGGGGACCGUCCCCUCGGUACUGGCGAAUGGGACCCA, the self-cleavage turned out to be 0.0475.

Take GGCCGGCAUGGUCCCAGCCUCCUCGCUGGUGCCGGCUGGGCAACAUUCCGAGGGGACCGUCCCCUCGGUAAUGGCGAAUGAGACCCA: the self-cleavage was 0.155.

As to GGCCGGCAUGGUCCCAGCCUCCUCGCUGGCCCCGGCUGGGCAGCAUUCCGAGGGGACCGUCCCCUCGGUAAUGGCGAAUGGGACCCA, the self-cleavage is 0.104.

GGCCGGCAUGGUCCCAGCCUCCUCGCUGGUGCCGGCUGGGCAACAUUCCGAGGGGACCGGCCCCUCGGUAAUGGCGAAUGGGACCCA: the self-cleavage was 0.443.

On to GGCCGGCAUGGUCCCAGCCUCCUCGCUGGCACCGGCUGGGCAACAUUCCGAGGGGACCGUCCCCUCGGUAAUGGCGAAUGGGGCCCA, for which the self-cleavage stood at 0.228.

For GGCCGGCAUGGUCCCAGCCUCCUCGCUGGCACCGGCUGGGCAACAUUCCGAGGGGACCGUCCCCUCGGUAAUGGCGAAUGGGUCCCA, the self-cleavage was found to be 0.178.

For the variant GGCCGGCAUGGUCCCAGCCUCCUCGCUGGCACCGGCUGGGCAACAUUCCGAGGGGACCGUCCCCUCGGUAAUGGCGAAUGGGCCCCA, the self-cleavage was found to be 0.0811.

Turning to GGCCGGCAUGGUCCCAGCCUCCUCGCUGGCACCGGCUGGGCGACAUUCCGAGGGGACCGUCCCCUCGGUAAUGGCGAAUGGGACCCA, the self-cleavage is 0.116.

With GGCCGGCAUGGUCCCAGCCUCCUCGCUGGCACCGGCUGGGCCACAUUCCGAGGGGACCGUCCCCUCGGUAAUGGCGAAUGGGACCCA, the self-cleavage was found to be 0.102.

With GGCCGGCAUGGUCCCAGCCUCCUCGCUGGCACCGGCUGGGCUACAUUCCGAGGGGACCGUCCCCUCGGUAAUGGCGAAUGGGACCCA, the self-cleavage worked out at 0.107.

Regarding GGCCGGCAUGGUCCCAGCCUCCUCGCUGGCACCGGCUGCGCAACAUUCCGAGGGGACCGUCCCCUCGGUAAUGGCGAAUGGGACCCA, the self-cleavage is 0.182.

Turning to GGCCGGCAUGGUCCCAGCCUCCUCGCUGGCCCCGGCUGGGCAACAUUCCGAGGGGACCGUCCCCUCGGUAAUGGCGAAUGGGCCCCA, the self-cleavage amounted to 0.185.

Take GGCCGGCAUGGUCCCAGCCUCCUCGCUGGCCCCGGCUGGGCAACAUUCCGAGGGGACCGUCCCCUCGGUAAUGGCGACUGGGACCCA: the self-cleavage was found to be 0.0997.

As to GGCCGGCAUGGUCCCAGCCUCCUCGCUGGUGCCGGCUGGGCAACAUUCCGAGGGGACCGUCCCCUCGGUAAUUGCGAAUGGGACCCA, the self-cleavage is 0.153.
